Patent US20230329245A1, “COMPOSITIONS AND METHODS OF USE THEREOF” (Curie Co. Inc., priority 2020, published 2023)

Assay: Colorimetric hydroxamate Tgase activity assay
Assay type: biochemical
Settings: zymogen purified on Ni-IMAC resin and desalted
Experimental: The cells were lysed using a high-pressure homogenizer at pressures from 15000-20000 psi. The crude lysates were clarified through centrifugation at 15000×g for up to 60 minutes. The clarified lysate containing pro-Tgase SEQ ID NO:3 was evaluated by sodium dodecyl sulfate polyacrylamide gel electrophoresis (SDS-PAGE) and spectroscopy (A280 nm). The clarified lysate was further purified by affinity column on a Ni-IMAC resin and desalted.

B1: Pro-Tgase SEQ ID NO:3: variant of Streptomyces mobaraensis Tgase zymogen form (pro-Tgase), SEQ ID NO:3 (protein)
chain: MDNGAGEETKSYAETYRLTADDVANINALNESAPAASSAGPSFRAPDPDDRVTPPAEPLDRMPDPYRPSYGRAETVVNNYIRKWQQVYSHRDGRKQQMTEEQREWLSYGCVGVTWVNSGQYPTNRLAFASFDEDRFKNELKNGRPRSGETRAEFEGRVAKESFDEEKGFQRAREVASVMNRALENAHDESAYLDNLKKELANGNDALRNEDARSPFYSALRNTPSFKERNGGNHDPSRMKAVIYSKHFWSGQDRSSSADKRKYGDPDAFRPAPGTGLVDMSRDRNIPRSPTSPGEGFVNFDYGWFGAQTEADADKTVWTHGNHYHAPNGSLGAMHVYESKFRNWSEGYSDFDRGAYVITFIPKSWNTAPDKVKQGWPLEHHHHHH
- Tgase activity (colorimetric hydroxamate activity assay): little to no activity
